Reference: US20180011114A1 (PUBLIC UNIVERSITY CORPORATION NARA MEDICAL UNIVERSITY, published 2018)

Legend:
[1] = molecular target: T1, anti-FIXa-arm of ACE910; experiment: ELISA, hybridoma culture supernatant
T1 construct: Q499/J327; also called anti-FIXa side Fab of ACE910; anti-FIXa-F(ab')2
Experimental: (§1) Mice and rats were immunized with anti-FIXa-F(ab′)2 or anti-FX-F(ab′)2. Cells obtained from the spleen removed from the mice or rats or from rat lymph nodes were subjected to cell fusion with mouse myeloma cells by following general methods to produce the hybridomas. The culture supernatants of the hybridomas were evaluated by ELISA which detects the binding of ACE910 to the anti-FIXa-arm or the anti-FX-arm, and ultimately, mouse antibodies, AQ8 and AQ1, and rat antibody, AQ512, which bind only to the anti-FIXa-arm but not to the anti-FX-arm of ACE910, and rat antibodies, AJ540, AJ114, AJ521, AJ522, and AJ541, which bind only to the anti-FX-arm but not to the anti-FIXa-arm of ACE910 were selected. In addition, the nucleotide sequences of the variable regions of the AQ8 antibody or the AJ540 antibody were analyzed. The nucleotide sequences of the variable regions of AQ8 and AJ540, and amino acid sequences predicted therefrom were analyzed using GENETYX Ver.9 (GENETYX CORPORATION).

[2] = molecular target: T2, anti-FX-arm of ACE910; experiment: ELISA, hybridoma culture supernatant
T2 construct: also called anti-FX side Fab of ACE910; anti-FX-F(ab')2
T2 sequence (VH, as listed by the source, chain 1 of 2): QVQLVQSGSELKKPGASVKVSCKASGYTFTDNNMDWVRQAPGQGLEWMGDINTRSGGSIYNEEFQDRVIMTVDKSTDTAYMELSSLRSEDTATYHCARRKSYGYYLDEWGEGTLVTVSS
T2 sequence (VL, as listed by the source, chain 2 of 2): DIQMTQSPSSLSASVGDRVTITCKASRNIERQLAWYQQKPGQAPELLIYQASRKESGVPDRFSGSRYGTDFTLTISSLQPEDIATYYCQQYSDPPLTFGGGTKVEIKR
Experimental: as §1

T1 sequence (VH, as listed by the source, chain 1 of 2): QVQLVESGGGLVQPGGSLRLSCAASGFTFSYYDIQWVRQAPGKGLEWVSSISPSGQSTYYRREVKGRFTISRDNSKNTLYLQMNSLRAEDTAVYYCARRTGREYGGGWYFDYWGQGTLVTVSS
T1 sequence (VL, as listed by the source, chain 2 of 2): as the sequence (VL, as listed by the source, chain 2 of 2) above

binding result [1]	binding result [2]	Binder
no binding		AJ540 (antibody, V domains shown, Rat antibody from a hybridoma (culture supernatant in the ELISA); also called AJ540 antibody) VH: QIQLVQSGPELKKPGESVKISCKASGYTFTDYAMHWVKQVPGKGLKWMGWINTYTGKPTYADDFKGRFVFSLEASASTANLQISNLKNEDTANVFCAREGGGYYWYFDFWGPGTMVTVSS VL: DIVMTQSPTSMSISVGDRVTMNCKANQNVDFNVDWYQQKTGQSPKLLIYKASNRYTGVPDRFTGSGSGTDFTFTISNMQAEDLAVYYCMQSNSFPLTFGSGTNLEIK
	no binding	AQ8 (antibody, V domains shown, Mouse antibody from a hybridoma (culture supernatant in the ELISA); also called AQ8 antibody) VH: EVNLVESGGGLVQPGGSMSLSCAASGFTFTDYYMSWVRQPPGKALEWLALIRNKANGYTTEYSASVKGRFTISRDNSQSILYLQMNALRAEDSATYYCARDSYYSYDGYAMDYWGQGTSVTVSS VL: DIQMTQSPASLAASVGETITITCQASENIYFSLAWYQQKQGKSPQLLIYNTDSLKDGVPSRFSGSGSGTQYSMKINSMQPEDTATYFCRQSYDFPWTFGGGTKLEIK
